In patent US20260098080A1, “A MODIFIED PROTEIN SCAFFOLD AND USE THEREOF” (EVOLVERITAS BIOTECHNOLÓGIAI KORLÁTOLT FELELOSSÉGU TÁRSASÁG, priority 2022, published 2026):
Changes are numbered by the printed parent chain. Where no end group is shown, it is not given here.

B1: EVO2a (designed binder)
chain: KPDFCFLENDPGPCRAVKRRYFYNNQTKQCERFKYGGCLGNMNNFETLEECKNICEDG
modifications: not fully specified; cysteine pairing not given here
notes: Modified TFPI-D2 Kunitz domain; made as m1
B2: EVO21d (designed binder)
chain: B1 chain with N9E, V17L, K34S, L39F, E46V
modifications: not fully specified; cysteine pairing not given here
B3: EVO23a (designed binder)
chain: B1 chain with N9E, V17L, K34Y, L39F, E46V
B4: EVO21b (designed binder)
chain: B1 chain with N9E, V17L, K34G, E46V
modifications: not fully specified; cysteine pairing not given here
B5: EVO2c (designed binder)
chain: B1 chain with N9E, K34Y
modifications: not fully specified; cysteine pairing not given here
notes: as for B1
B6: EVO22a (designed binder)
chain: B1 chain with V17A, K34Y, E46V
notes: as for B1
B7: EVO212 (designed binder)
chain: B1 chain with P13L, V17L, K34G, E46V
modifications: not fully specified; ends and bridges not checked
notes: as for B1
B8: EVO215 (designed binder)
chain: B1 chain with P13W, V17A, K34G, E46V
modifications: not fully specified; ends and bridges not checked
notes: as for B1
B9: EVO216 (designed binder)
chain: B1 chain with P13W, V17A, R19L, K34G, E46V
modifications: not fully specified; cysteine pairing not given here
notes: as for B1
B10: EVO211 (designed binder)
chain: B1 chain with P13W, V17L, K34G, E46V
modifications: not fully specified; ends and bridges not checked
notes: as for B1
B11: EVO2b (designed binder)
chain: B1 chain with N9E, K34G
modifications: not fully specified; cysteine pairing not given here
notes: as for B1
B12: EVO22b (designed binder)
chain: B1 chain with V17L, K18A, K34Y, E46V
modifications: not fully specified; cysteine pairing not given here
notes: as for B1
B13: EVO2d (designed binder)
chain: B1 chain with N9E, V17L
modifications: not fully specified; cysteine pairing not given here
notes: as for B1
B14: EVO213 (designed binder)
chain: B1 chain with V17A, K34G, E46V
notes: as for B1

Key:
[1] = molecular target: T1, rat MASP-2cf CCP1-CCP2-SP (rat, UniProt Q9JJS8 298-685); assay: SPR, target immobilised
T1 construct: range 298-685; Mw 42309 Da; also called rat MASP-2 catalytic fragment

[2] = molecular target: T2, human MASP-2cf CCP1-CCP2-SP (human, UniProt O00187 298-686, limits assumed); assay: SPR, target immobilised
T2 construct: domain: CCP1-CCP2-SP; also called human MASP-2 catalytic fragment

[3] = molecular target: rat MASP-2 (in rat serum) (rat, UniProt Q9JJS8 20-685); assay: cell-based or functional assay
[4] = molecular target: T3, human MASP-2 (in normal human serum) (human, UniProt O00187 16-686); assay: cell-based or functional assay
[5] = molecular target: T3, human MASP-2 (in normal human serum); assay: cell-based or functional assay; remark: listed apart in the source

T1 sequence (Q9JJS8 other isoform, or with tags, fused parts or gaps limits assumed, form in doubt): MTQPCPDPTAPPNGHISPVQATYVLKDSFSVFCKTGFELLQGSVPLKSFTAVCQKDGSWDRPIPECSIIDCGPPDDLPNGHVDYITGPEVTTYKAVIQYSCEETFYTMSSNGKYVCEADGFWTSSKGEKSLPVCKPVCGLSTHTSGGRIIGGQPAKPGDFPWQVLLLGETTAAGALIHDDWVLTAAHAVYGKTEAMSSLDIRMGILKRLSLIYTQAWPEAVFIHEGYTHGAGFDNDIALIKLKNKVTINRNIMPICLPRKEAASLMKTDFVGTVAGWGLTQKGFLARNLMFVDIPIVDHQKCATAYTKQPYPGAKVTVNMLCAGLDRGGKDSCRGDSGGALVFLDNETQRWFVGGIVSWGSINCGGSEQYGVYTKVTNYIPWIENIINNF
rat MASP-2 (in rat serum), sequence (Q9JJS8 20-685 limits assumed): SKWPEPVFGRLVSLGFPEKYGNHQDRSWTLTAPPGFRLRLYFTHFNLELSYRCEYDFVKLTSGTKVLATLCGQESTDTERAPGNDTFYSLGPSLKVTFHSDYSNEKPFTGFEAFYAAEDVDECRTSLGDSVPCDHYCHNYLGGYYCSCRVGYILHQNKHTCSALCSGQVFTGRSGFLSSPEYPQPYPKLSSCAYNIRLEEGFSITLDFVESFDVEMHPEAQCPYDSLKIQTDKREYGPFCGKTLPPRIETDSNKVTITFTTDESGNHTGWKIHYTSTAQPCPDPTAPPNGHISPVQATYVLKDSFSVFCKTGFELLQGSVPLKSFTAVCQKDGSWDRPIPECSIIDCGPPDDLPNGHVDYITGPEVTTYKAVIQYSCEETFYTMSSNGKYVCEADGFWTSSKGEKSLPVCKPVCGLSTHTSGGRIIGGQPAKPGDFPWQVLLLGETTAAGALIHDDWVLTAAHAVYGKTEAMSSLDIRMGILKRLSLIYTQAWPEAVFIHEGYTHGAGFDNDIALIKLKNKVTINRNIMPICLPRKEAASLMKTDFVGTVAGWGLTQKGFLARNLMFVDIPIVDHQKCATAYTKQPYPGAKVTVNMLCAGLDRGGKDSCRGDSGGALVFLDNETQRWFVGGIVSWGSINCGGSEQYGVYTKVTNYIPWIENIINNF
T3 sequence (O00187 16-686 limits assumed): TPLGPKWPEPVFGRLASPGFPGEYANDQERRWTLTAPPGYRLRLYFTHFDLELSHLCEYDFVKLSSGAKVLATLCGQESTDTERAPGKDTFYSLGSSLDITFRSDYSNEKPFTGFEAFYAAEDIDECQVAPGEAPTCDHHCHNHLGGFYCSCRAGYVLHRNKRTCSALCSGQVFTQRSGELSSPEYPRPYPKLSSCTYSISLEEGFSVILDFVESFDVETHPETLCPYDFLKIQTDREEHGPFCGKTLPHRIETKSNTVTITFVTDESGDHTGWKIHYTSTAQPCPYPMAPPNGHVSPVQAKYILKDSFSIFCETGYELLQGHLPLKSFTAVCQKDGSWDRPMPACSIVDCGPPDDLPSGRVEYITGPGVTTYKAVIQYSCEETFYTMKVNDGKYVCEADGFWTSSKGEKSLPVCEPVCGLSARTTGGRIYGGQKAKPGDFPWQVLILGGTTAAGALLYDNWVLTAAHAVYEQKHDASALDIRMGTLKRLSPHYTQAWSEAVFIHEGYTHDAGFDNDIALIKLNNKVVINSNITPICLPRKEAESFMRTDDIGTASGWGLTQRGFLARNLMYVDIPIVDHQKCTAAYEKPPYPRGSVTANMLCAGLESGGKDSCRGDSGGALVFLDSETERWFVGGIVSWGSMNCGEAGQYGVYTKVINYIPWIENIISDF
T2 sequence (O00187 298-686 limits assumed): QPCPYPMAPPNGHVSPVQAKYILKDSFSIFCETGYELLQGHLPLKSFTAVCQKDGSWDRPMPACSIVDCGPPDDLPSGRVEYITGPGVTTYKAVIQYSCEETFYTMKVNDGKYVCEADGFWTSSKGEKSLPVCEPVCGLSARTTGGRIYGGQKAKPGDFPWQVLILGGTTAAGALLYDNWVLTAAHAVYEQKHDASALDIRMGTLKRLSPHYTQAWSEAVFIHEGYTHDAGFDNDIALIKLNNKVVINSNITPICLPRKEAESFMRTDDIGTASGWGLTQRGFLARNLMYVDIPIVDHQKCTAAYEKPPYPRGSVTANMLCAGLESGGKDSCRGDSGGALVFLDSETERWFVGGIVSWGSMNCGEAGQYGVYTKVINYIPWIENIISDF

Binder	Kd [1] [nM]	Relative affinity [1] [fold vs EVO2]	koff [1] [s⁻¹]	kon [1] [M⁻¹ s⁻¹]	Kd [2] [nM]	Relative affinity [2] [fold vs EVO2]	koff [2] [s⁻¹]	kon [2] [M⁻¹ s⁻¹]	IC50, lectin pathway C4 deposition, rat serum [3] [nM]	Relative potency, lectin pathway, rat serum [3] [fold vs EVO2]	IC50, lectin pathway C4 deposition, human serum [4] [nM]	Relative potency, lectin pathway, human serum [4] [fold vs EVO2]	Relative potency (relative human lectin pathway inhibitory efficiency compared to EVO2) [5]
B1	4.73	0.8	0.00151	319000	2.95	0.6	0.0021	711000	213	0.5	215	0.6	–
B2	–	–	–	–	–	–	–	–	25.9	4.1	8.3	16.6	–
B3	–	–	–	–	–	–	–	–	14.1	7.5	3.2	43	43.1 fold relative to EVO2
B4	–	–	–	–	–	–	–	–	7.2	14.7	4.3	31.9	32.1 fold relative to EVO2
B5	1.31	2.8	0.000978	747000	1.04	1.7	0.00161	1.55e+06	34.3	3.1	22.3	6.2	–
B6	0.192	18.9	0.000163	847000	–	40.1	9.09e-05	2.04e+06	10.6	10	3.7	37.1	–
B7	1.26	2.9	0.000618	492000	0.055	32.7	8.26e-05	1.51e+06	46.3	2.3	6.2	22.1	–
B8	–	–	–	–	0.304	5.9	0.000559	1.84e+06	–	–	22.7	6.1	–
B9	–	–	–	–	0.76	2.4	0.000732	963000	–	–	30.9	4.5	–
B10	2.87	1.3	0.0027	942000	0.043	41.6	6.62e-05	1.54e+06	53.2	2	3.1	44	–
B11	1.95	1.9	0.000942	484000	1.97	0.9	0.00156	790000	34.3	3.1	62.7	2.2	–
B12	0.163	22.3	0.000159	975000	0.21	8.5	0.00026	1.24e+06	9.7	11	13.7	10	–
B13	1.08	3.4	0.000438	405000	1.19	1.5	0.00108	909000	70.9	1.5	60.3	2.3	–
B14	3.81	1	0.00147	386000	0.542	3.3	0.000524	967000	88.7	1.2	28.3	4.9	–
